Source: article PMC12136795, “RNA modifications and Prp24 coordinate Lsm2–8 binding dynamics during S. cerevisiae U6 snRNP assembly”

Assays:
Lsm2-8 heteroheptamer WT [1] = target: T1, Lsm2-8 heteroheptamer WT (Saccharomyces cerevisiae, UniProt P38203;P57743;P40070;P40089;Q06406;P53905;P47093 …); test: fluorescence polarization; Hill 1.18; FP: 2x RNA stock 2 nM mixed 1:1 with protein, 100 mM NaCl, 20 mM Bis-Tris pH 7.0, 10 mM HCl, 1 mM TCEP, 5% glycerol, yeast tRNA, BSA. EMSA: 100 mM KCl, 20% sucrose, 20 mM Hepes pH 7, 1 mM EDTA, 1 mM TCEP, 0.01% Triton X-100 (RNA buffer), yeast tRNA, heparin, BSA, 30 min room temperature, 6% native PAGE at 4 C. CoSMoS buffer not in material.; details: protein: recombinant; tags: His-tag removed with TEV; copies: 1;1;1;1;1;1;1; label: fluorophore
T1 sequence 1: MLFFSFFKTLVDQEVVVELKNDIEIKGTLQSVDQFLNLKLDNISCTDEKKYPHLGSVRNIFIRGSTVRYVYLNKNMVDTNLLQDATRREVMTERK
T1 sequence 2: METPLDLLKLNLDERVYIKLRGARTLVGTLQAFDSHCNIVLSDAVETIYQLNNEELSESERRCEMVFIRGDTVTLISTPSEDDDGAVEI
T1 sequence 3: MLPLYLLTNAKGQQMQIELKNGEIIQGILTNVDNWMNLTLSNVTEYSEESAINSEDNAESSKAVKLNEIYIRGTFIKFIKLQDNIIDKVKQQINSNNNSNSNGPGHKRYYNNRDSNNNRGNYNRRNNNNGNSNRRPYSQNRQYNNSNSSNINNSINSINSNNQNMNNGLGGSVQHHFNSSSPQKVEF
T1 sequence 4: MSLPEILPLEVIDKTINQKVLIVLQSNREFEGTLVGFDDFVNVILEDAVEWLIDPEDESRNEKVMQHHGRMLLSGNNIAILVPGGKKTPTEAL
T1 sequence 5: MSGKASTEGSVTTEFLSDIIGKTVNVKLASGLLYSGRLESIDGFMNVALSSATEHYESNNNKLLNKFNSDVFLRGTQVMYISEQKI
T1 sequence 6: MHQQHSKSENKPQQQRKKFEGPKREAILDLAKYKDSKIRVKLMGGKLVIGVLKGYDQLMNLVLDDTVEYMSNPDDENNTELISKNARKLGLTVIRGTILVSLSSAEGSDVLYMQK
T1 sequence 7: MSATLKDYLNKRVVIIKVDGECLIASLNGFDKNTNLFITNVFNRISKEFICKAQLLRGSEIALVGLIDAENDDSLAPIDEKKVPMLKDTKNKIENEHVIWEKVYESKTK

Lsm2-8fSNAP (unlabeled) [2] = target: T2, Lsm2-8fSNAP (unlabeled) (Saccharomyces cerevisiae, UniProt P38203;P57743;P40070;P40089;Q06406;P53905;P47093 …); test: fluorescence polarization; Hill 1.12; FP: 2x RNA stock 2 nM mixed 1:1 with protein, 100 mM NaCl, 20 mM Bis-Tris pH 7.0, 10 mM HCl, 1 mM TCEP, 5% glycerol, yeast tRNA, BSA. EMSA: 100 mM KCl, 20% sucrose, 20 mM Hepes pH 7, 1 mM EDTA, 1 mM TCEP, 0.01% Triton X-100 (RNA buffer), yeast tRNA, heparin, BSA, 30 min room temperature, 6% native PAGE at 4 C. CoSMoS buffer not in material.; details: protein: recombinant; tags: fast SNAP tag at C terminus of Lsm8 via flexible linker; His-tag removed with TEV; copies: 1;1;1;1;1;1;1; label: fluorophore
T2 sequence 1: T1 sequence 1
T2 sequence 2: T1 sequence 2
T2 sequence 3: T1 sequence 3
T2 sequence 4: T1 sequence 4
T2 sequence 5: T1 sequence 5
T2 sequence 6: T1 sequence 6
T2 sequence 7: T1 sequence 7

Lsm2-8 heteroheptamer WT [3] = target: T1, Lsm2-8 heteroheptamer WT; test: fluorescence polarization; Hill 1.26; FP: 2x RNA stock 2 nM mixed 1:1 with protein, 100 mM NaCl, 20 mM Bis-Tris pH 7.0, 10 mM HCl, 1 mM TCEP, 5% glycerol, yeast tRNA, BSA. EMSA: 100 mM KCl, 20% sucrose, 20 mM Hepes pH 7, 1 mM EDTA, 1 mM TCEP, 0.01% Triton X-100 (RNA buffer), yeast tRNA, heparin, BSA, 30 min room temperature, 6% native PAGE at 4 C. CoSMoS buffer not in material.; details: protein: recombinant; tags: His-tag removed with TEV; copies: 1;1;1;1;1;1;1; label: fluorophore
Lsm2-8fSNAP (unlabeled) [4] = target: T2, Lsm2-8fSNAP (unlabeled); test: fluorescence polarization; Hill 1.35; FP: 2x RNA stock 2 nM mixed 1:1 with protein, 100 mM NaCl, 20 mM Bis-Tris pH 7.0, 10 mM HCl, 1 mM TCEP, 5% glycerol, yeast tRNA, BSA. EMSA: 100 mM KCl, 20% sucrose, 20 mM Hepes pH 7, 1 mM EDTA, 1 mM TCEP, 0.01% Triton X-100 (RNA buffer), yeast tRNA, heparin, BSA, 30 min room temperature, 6% native PAGE at 4 C. CoSMoS buffer not in material.; details: protein: recombinant; tags: fast SNAP tag at C terminus of Lsm8 via flexible linker; His-tag removed with TEV; copies: 1;1;1;1;1;1;1; label: fluorophore
Lsm2-8 heteroheptamer WT [5] = target: T1, Lsm2-8 heteroheptamer WT; test: fluorescence polarization; Hill 1.11; FP: 2x RNA stock 2 nM mixed 1:1 with protein, 100 mM NaCl, 20 mM Bis-Tris pH 7.0, 10 mM HCl, 1 mM TCEP, 5% glycerol, yeast tRNA, BSA. EMSA: 100 mM KCl, 20% sucrose, 20 mM Hepes pH 7, 1 mM EDTA, 1 mM TCEP, 0.01% Triton X-100 (RNA buffer), yeast tRNA, heparin, BSA, 30 min room temperature, 6% native PAGE at 4 C. CoSMoS buffer not in material.; details: protein: recombinant; tags: His-tag removed with TEV; copies: 1;1;1;1;1;1;1; label: fluorophore
Lsm2-8fSNAP (unlabeled) [6] = target: T2, Lsm2-8fSNAP (unlabeled); test: fluorescence polarization; Hill 0.88; FP: 2x RNA stock 2 nM mixed 1:1 with protein, 100 mM NaCl, 20 mM Bis-Tris pH 7.0, 10 mM HCl, 1 mM TCEP, 5% glycerol, yeast tRNA, BSA. EMSA: 100 mM KCl, 20% sucrose, 20 mM Hepes pH 7, 1 mM EDTA, 1 mM TCEP, 0.01% Triton X-100 (RNA buffer), yeast tRNA, heparin, BSA, 30 min room temperature, 6% native PAGE at 4 C. CoSMoS buffer not in material.; details: protein: recombinant; tags: fast SNAP tag at C terminus of Lsm8 via flexible linker; His-tag removed with TEV; copies: 1;1;1;1;1;1;1; label: fluorophore

AGAGAUUUAUUUCGUUUUU (ssRNA, 3' cis-diol (2',3'-OH)) [U6 95-113-OH]
Kd (Lsm2-8 heteroheptamer WT [1]): 6.75 ± 1.15 nM
Kd (Lsm2-8fSNAP (unlabeled) [2]): 6.7 ± 1.1 nM

AGAGAUUUAUUUCGUUUU (ssRNA, 3' cis-diol (2',3'-OH)) [U6 95-112-OH]
Kd (Lsm2-8 heteroheptamer WT [3]): 84.6 ± 16.8 nM
Kd (Lsm2-8fSNAP (unlabeled) [4]): 114 ± 16.8 nM

AGAGAUUUAUUUCGUUUU (ssRNA, 3' phosphate) [U6 95-112-P]
Kd (Lsm2-8 heteroheptamer WT [5]): 10.3 ± 4.1 nM
Kd (Lsm2-8fSNAP (unlabeled) [6]): 12.8 ± 3.87 nM
